Drawing on article PMC10249821, this text covers IC50 of inhibition of HIV-1 IIIB infection of MT-4 cells (MTT assay of virus-induced cytopathic effect, 5 days post infection) for 2 substances.

For this assay, the target named is gp41 of HIV-1 IIIB (HIV-1 IIIB) (UniProt P04578).

Substance “Enfuvirtide Primary Reference Standard (peptide)” came in with an IC50 of inhibition of HIV-1 IIIB infection of MT-4 cells (MTT assay of virus-induced cytopathic effect, 5 days post infection) of 18 nM.

Consider biosynthesized enfuvirtide (peptide), for which the IC50 of inhibition of HIV-1 IIIB infection of MT-4 cells (MTT assay of virus-induced cytopathic effect, 5 days post infection) is 45.3 nM.
